Experimental data published in the nanobody polyreactivity screen of Harvey et al. (2022).

Assay: yeast display, Sf9 membrane polyspecificity reagent, FACS + sequencing; frameworks hold sequencing errors
Procedure, shortened: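 Nanobodies came from a synthetic yeast display library in Saccharomyces cerevisiae BJ5465, induced with galactose for 36–48 hours and stained for 1 hour at 4 °C with 10% biotinylated, detergent-solubilized Sf9 membrane reagent. Cells were enriched on streptavidin microbeads and then FACS-sorted, with low and high (top ~1%) gates set on anti-HA fluorescence for expression and streptavidin fluorescence for reagent binding. Each polyreactivity label reflects the gate a clone came from. Genes were amplified by colony PCR, sequenced by MiSeq 2 × 250 and filtered by CDR length.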

Sequence | polyreactivity (PSR sort gate)
QVQLVESGGGLVQAGGSLRLSCAASGSILIVYAMGWYRQAPGKERELVAAITRGGRTNYADSVKGRFTISRDYAKNTVYLQMNSLKPEDPAVYYCAAYTESYGGSDYDYWGQGTQVTVSS | high polyreactivity
QVQLVESGGGLVQAGGSLRLSCAASGSIFPHNAMGWYRQAPGTERELVASITSRGGITYYADSVKGRFTISRDNAKNTVYLQMNSLKPEDTAVYYCAADLYIYPYDYWGQGTQVTVSS | low polyreactivity
QVQLVESGGGLVQAGGSLRLSCAASGRIFYYNALGWYRPAPGKERELVAAISWSGGSTYYADSVKGRFTISRDNATNTVYLQMNSLKPEDTAVYYCAVDVYGYTPRPTREPLIYEYWGQGTQVTVSS | low polyreactivity
QVQLVESGGGLVQAGGSLRLSCAASGFTFNKYDMGWYRQAPGKERELVAVITWSGGSTYYADSVKGRFTISRDNAKNTVYLQMKSLKPEDTAVYYCNAEAPRYTYGRMDYWGQGTQVTVSS | low polyreactivity
QVQLVESGGGLVQAGGSLRLSCAASGSTFGLYAMGWYRQAPGKERELVAAISGGSGRTYYADSVKGRFTISRDNAKNTVYLQMNSLKPEDTAVYYCAAVPVYRHEYDYWGQGTQVTVSS | low polyreactivity
QVQLVESGGGLVQAGGSLRLSCAASGFTFPYYAMGWYRQAPGKERELVAAISSSGGRTYYADSVKGRFTISRDNAKNTVYLQMNSLKPEDTAVYYCAVRGKAYRRLRDYWGQGTQVTVSS | high polyreactivity
QVQLVESGGGLVQAGGSLRLSCAASGRIFAGYGMGWYRQAPGKARELVAAISSGGSTYYADSVKGRFTISRDNAKNTVYLQMNSLKPEDTAVYYCATDGQSVPDDYYQNVDYDYWGQGTQLTVSS | low polyreactivity
QVQLVESGGGLVQAGGSLRLSSAASGFTFTIYAMGWYRPAPGKERELVDTISTRGGNTYYADSVKGRFTISRDNAKNTVYLQMNSLKPEDTAVYYCAAEHWFPSAPWYYSDLHYYWGQGTQVTVSS | high polyreactivity
QVQLVESGGGLVQAGGSLRLSCAATGSTFTFNAMGWYRQAPGKEREFVAAITASGGRTYYADSVKGRFTISRDNAKNTVYLQMNSLKPEDTAVYYCAADACLLGPGDFNYWGQGTQVTVSS | low polyreactivity
QVQLVESGGGLVQAGGSLRLSCAASGLTFSYYAMGWYRQAPGKERELVAAITSGGNTNYADSVKGRFTISRDNAKNTVYLQMNSLKPEDTAVYYCAARFYFTRSFPRKFYYWGQGTQVTVSS | high polyreactivity
QVQLVESGGGLVQAGGSLSLSCAASGRSWFGNAMGWYRQAPGKERELVASISTRGGSTYYADSVKGRFTISRDNAKNTVYLQMNSLKPEDTAVYYCAKRGRDRRIYGYWGQGTQVTVSS | high polyreactivity
QVQLVESGGGLVQAGGSLRLSCAASGFTFVQYAMGWYRQAPGKERELVATISKSGGITYYADSVKGRFTISRDNAKNTVYLQMNSLKPEDNAVYYCAAAWYYSSRGFHATWGHDYWGQGTQVTVSS | low polyreactivity
QVQLVESGGGLVQAGGSLRLSCAASGRIFTRNAMGWYRQAPGKERELVAAIRWSGDSTYYADSVKGRFTISRDNAKNTVYLQMNSLKPEDTAVYYCAADRQRSHRVGTKGHRVGYWGQGTQVTVSS | high polyreactivity
QVQLVESGGGLVQAGGSLRLSCAASGSTFQDYAMGWYRQAPGKERELVAAITYSGGSTYYADSVKGRFTISRDNAKNTVYLQLNSLKPDVTAVYYCAAKDTTVFYYDDDYWGQGTQVTVSS | low polyreactivity
QVQLVESGGGLVQAGGSLRLSCAASGRTFGKYAMGWYRQAPGKERELVAVITWRGVSTYADSVKGRFTISRDNAKNTVYLQMNSLKPEDTSFYYCAKTRVRGTEFGYWGLGTQVTVSS | low polyreactivity
QVQLVESGGGLVQAGGSLRLSCDASGITFGNYAMGWYRPAPGKDRELVAAITGSGGRTYYADSVKGRFTISRDNAKNTVYLQMNSLKPEDTAVYYCNRRQYGRKKQYDYWGQGTQVTVSS | high polyreactivity
QVQLVESGGGLVQAGGSLRLSCAASGFIFAWYAMGWYRQAPGKERELVASISVSDGSTYYADSVKGRFTISRDNAKNTVYLQMNSLKPEDTAVYYCAADRFYDQAYDYWGQGTQVTVSS | low polyreactivity
QVQLVESGGGLVQAGGSLRLSCAASGLIFLDYAMGWYRQAPGKERELVAAISSSGGRTYYADSVKGRFTISRDNAKNTVYLQMNSLKPEDTAVYYCATGPNSYDYWGQGTQVTVSS | high polyreactivity
QVQLVESGGGLVQAGGSLRLSCAASGRIFVIYAMGWYRQAPGKERELVAAISYSGGSTYYADSVKGRFTISRDNAKNTVYLQMNSLKPEDTAVYYCAARVRGDYGHKYYQYDYWGQGTQVTVSS | low polyreactivity
QVQLVESGGGLVEAAGSLRLSCAASGRILCGNTMGWYRQATGKERELFAAISWNGGGTYYADSVKGRFTISRDTAKNNVYLQMNSLTPEDTAVYYCATRYTYSTDTGYDYWGQGTQVTVSS | low polyreactivity
QVQLVESGGGLVQAGGSLRLSCAASGYIFVYNAMGWYRQAPGKERELVAAITDGGGSTYADSVKGRFTISRDNAKNTVYLQMNSLNPEDTAVYYCAARYSDTTWYVLYYYWGQGTQVTVSS | low polyreactivity
QVQLVESGGGLDQAGGSLRLSSAASGSMILHNDMGWYRQAPGKEMELVATIDSAGGTYYADSVKGRFTISRDNAKNTVYLQMNSLKPEDSAVYYCAAYGPYVLSIYDYWGQGTQVTVSS | low polyreactivity

Sequence | polyreactivity (PSR sort gate)
QVQLVESGGGLVQAGGSLRLSSAASGSTFTSYAMGWYRQAPGKEREVVSTITGRGGSTSYSDSVKGRFTISRDNAKNTVYLQMNSLKPEDTAVYYCAKRVVVWYFGTGDYWGQGTKVTVSS | low polyreactivity
QVQLVESGVGLVQAGGSLRLICAASGSTFGVYAMGWYRQAPGKERELVARITSGGSTYYADSVKGRFTISRDNAKNTVYLQMNSLKPEDTAVYYCAAVYRRTRSWKFDYWGQGTQVTVSS | high polyreactivity
QVQLVESGGGLVQAGGSLRLSCAASGRIFYAYTMGWYRQAPGKERELVAAISGSGSTYYADSVKGRFTISRDNAKNTVYLQMNSLKPEDTAVYYCAADVTGGRKYDYWGQGTQVTLSS | low polyreactivity
QVKLVESGGGLVQAGGSLRLSCAASGGIFTDYTMGWSRQAPGKERELVAAITWTGGSTYYADSVKGRFTISRYNAKNTVYLQMNSLKPEDTAVYYCSADDYWVNLDYWGQGTQVNVSS | low polyreactivity
QVQLVESGGGLVQAGGSLRLSCAASGIIIRKYAMGWYRQAPGKERELVAAITTRGSRTYYADSVKGRFTISRDNAKNTVYFEMNSLKPEDTAVYYCAADFGYAWWWYDTYGYWGQGTQVTVSS | high polyreactivity
QVQLVESGGGLVQAGGSLRLSCAASGFTFYTNVMAWYRQAPGKERELVAAINSGGSTNYADSVKGRFTISRDNAKNTVFLQMNSLKPEDTAVYYCNKRGTEIGYDYWGQGTQVTVLS | low polyreactivity
QVQLVESGGGLVQAGGSLRLRCAASGLTFRYYAMGWYRQAPGKERELVAAISRTGRTNYSDSVKGRFTISRDNAKNTVYLQMNSLKPEDTAVYYCAATGIYAKALLWYDYWGQGTQVTVSS | high polyreactivity
QVQLVESGGGLVQAGGSLRLSCAASGRTFVEYAMGWYRQAPGKERELVADITISGGRTYYADSVKGRFTISRDNAKNTVYLQMNSLKPEDTAVYYCNAQSYLGVTHRGYIKNGYDYWGQGTQVTVSS | low polyreactivity
QVQLVESGGGLVQAGGSLRLSCAASGSTFLTNTMGWYRQAPGKERELVAAISKSGGSTYYADSVKGRFTISRDNAKNTVYLQMNSLKPEDTAVYYCAAVRYVHFGYDYWGQGTQVTVSS | high polyreactivity
QVQLVESGGGLVQAGGSLRLSCAASGIIFSDYDMGWYRQAPGKERELVAAISWSGGSTYYADSVKGRFTISRDNAKNTVYLQMNSLKPEDTAVYYCAVDSQRQVTSRDDYWGQGTQVTVSS | low polyreactivity
QVQLVESGGGLVQAGGSLRLSCAASGRTFFPYAMGWYRQAPGKERELVAAISFRGGRTYYADSVKGRFTISRDNAKNTVYLQMNSLKPEDTAVYYCNKLGTRVYEMDYWGQGTQVTVSS | high polyreactivity
QVQLVESGGGLVQAGGSLRLSCAASVSIYPDYAMGWYRQAPGKERELVAAISRSGGSTYYADSVKGRFTISRDNAKNTVYLQMNSLKREDTAVYDCNARPGSRYYGYRLYYYWGQGTQVTVSS | high polyreactivity
QVQVVESGGGLVQAGGSLRLSCAASGSIVSHYAMGWYRQAPGKERELVAGISRRGGRTYYADSVKGRFTISRDNAKNTVYLQMNSLKPEDTAVYYCAALRSSSFGYWGQGTQVTVSS | high polyreactivity
QVQFVESGGGLVQAGGSLRVSCAASGSTFQGYAMGWSRQAPGKERELVAAISRSGGRTYYADSVKGRFTISRDNAKNTVYLQMNSLKPEDTAVYYCAAEGHELTEGDSWGQGTQVTVSS | low polyreactivity
QVQLVESGGGLVQAGGSLRLICAASGFTYRGYAMGWYRQAPGKERELVAAISSSVGSTYYADAVKGRFTISRDNAKNTVYLQKISLKPEDTAVYYCAARKGYVIRYNYWGQGTQVTVSS | high polyreactivity
QVQLVESGGGLVQAGGSLRLTCAASGLTFDSNVMGWYRQAPGKERELVAAITASGGRTYYADSVKGRFTISRDNAKNTVYLQMNSLKPEDTAVYYCAADSRSAYDYWGQGSQVTVSS | high polyreactivity
QVQLQESGGGLVQEGGSLRLSCSASGNISPPADMGWSRQAPGKERELVASIGTGGTTNYADSVKGRFTISRDNAKNTVYLQMNSLKPDDTAVYYCAAGRYEYNPYDYWGQGTQVTVSS | low polyreactivity
QVQLVESGGGLVQAGGSLRLSCAASGYIFSYYAMGWYRQAPGKERELVAAINRSGGRTYYADSVKGRFTISRDNAKNTVYLQMNSLKPEDTAVYYCNAYSGLSYRYGYYYWGQGTQVTVSS | high polyreactivity
QVQLVESGGGLVQAGGSLRLSCAASGSIFALYTMGWYRQAPGKERELVAAISRRGGKTYYADSVKGRFTISRDNAKNTVYLQMNSLKPEDTAVYYCNADRLRSTHDYWGQGTQVTVSS | high polyreactivity
QVQLVESGGGLVQAGGRLRLSCAASGSTFSYYAMGWYRHAPGKERELVAAITSSGSRTYYADSVKGRFTISRDKAKNTVYLQMNSLKPEDTAVYYCAAVYVYRTSYLISLYDYGYWGQGTQVTVSS | high polyreactivity
QVQLVESGGCLVQAGGSLRLSCAASGRTFAWYAMGWYRQAPGKERELVAAITNGGSTYYADSVKGRFTISRDNAKNTVYLQMNSLKPDDTAVYYCAAYYRSRHHGYDSWGQGTQVTVSS | low polyreactivity
